Each sequence was assayed against HLA-B*51:01 (assay: IEDB peptide-MHC binding, purified MHC/competitive/radioactivity; ≥ and ≤ were set here for values at or beyond the usual limits of such assays). Conditions: source organism: Homo sapiens.

IC50 [µM] | Sequence
0.0065 | DAPLNIRSI
0.031 | DAYPQRIKF
0.0002 | DGLLRVLTV
0.0126 | DGLRDLPSI
0.0134 | DGYVVKETI
0.038 | IIYPTPKVV
0.0848 | TPESKIRFV
0.144 | VALLVGEKV
0.0563 | VPPLVPKVL
1.79 | YIIEREPLI

These sequences were tested against HLA-B*54:01 in the same assay as above. Conditions: source organism: Homo sapiens.

IC50 [µM] | Sequence
0.0164 | FPKETFEGP
0.0122 | FVEILIPVA
0.0166 | SAPVNFISA
0.0017 | YPVYQPVGP

The sequences below were run against HLA-A*29:02 in the same assay as above. Conditions: source organism: Homo sapiens.

IC50 [µM] | Sequence
0.0002 | FYPELKLAY
0.0297 | GLPDLVAKY
0.0016 | HFLDRHLVF
0.0046 | LPLDIQIFY
0.0026 | YLPALKVEY

The sequences below were run against HLA-A*01:01 in the same assay as above. Conditions: source organism: Homo sapiens.

IC50 [µM] | Sequence
0.191 | ATDGKVLLW
0.0808 | DTEFPNFKY
0.0013 | FLWPEAFLY
0.0706 | KLDLLEQEY
0.0111 | YVPEHWEYY

Reference: the Immune Epitope Database (IEDB)
